Laboratory results from the supplement of paper PMC10567573.

B1: C2CD2L (parent)
chain: EPAGSLRELGVWRSLLRLRATRAG
B2: FAM164C (parent)
chain: YPHCTGISQQDPESDSQGQGNGLF

Variants of: B1
Experiment: protein stability index of a GFP-peptide fusion (GPS, HEK-293T) (PSI 1-6); higher = more stable
Conditions: c terminus: a fixed tail appended
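Note: lentivirally expressed fusions sorted by FACS into six bins by GFP to DsRed ratio, PSI derived from sequencing read proportions per bin multiplied by bin number.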

Variant | protein stability index
EPAGSLRPLGVWRSLLRLRATRAG [E8P] | 2.93
EPADSLRELGVWRSLLRLRATRAG [G4D] | 3.19
EPAYSLRELGVWRSLLRLRATRAG [G4Y] | 3.48
EPANSLRELGVWRSLLRLRATRAG [G4N] | 1.98
EPATSLRELGVWRSLLRLRATRAG [G4T] | 2.4
EPAISLRELGVWRSLLRLRATRAG [G4I] | 2.07
EPAFSLRELGVWRSLLRLRATRAG [G4F] | 2.49
EPAPSLRELGVWRSLLRLRATRAG [G4P] | 3.02
EPAESLRELGVWRSLLRLRATRAG [G4E] | 3.52
EPASSLRELGVWRSLLRLRATRAG [G4S] | 2.4
EPACSLRELGVWRSLLRLRATRAG [G4C] | 2.04
EPALSLRELGVWRSLLRLRATRAG [G4L] | 1.97
EPAQSLRELGVWRSLLRLRATRAG [G4Q] | 3.42
EPAMSLRELGVWRSLLRLRATRAG [G4M] | 2.39
EPLGSLRELGVWRSLLRLRATRAG [A3L] | 1.59
EPPGSLRELGVWRSLLRLRATRAG [A3P] | 1.63
EPVGSLRELGVWRSLLRLRATRAG [A3V] | 2.77
EPFGSLRELGVWRSLLRLRATRAG [A3F] | 1.47
EPIGSLRELGVWRSLLRLRATRAG [A3I] | 2.84
EPMGSLRELGVWRSLLRLRATRAG [A3M] | 2.19
EPTGSLRELGVWRSLLRLRATRAG [A3T] | 2.93
EPWGSLRELGVWRSLLRLRATRAG [A3W] | 1.97
EPKGSLRELGVWRSLLRLRATRAG [A3K] | 2.04
EPEGSLRELGVWRSLLRLRATRAG [A3E] | 2.65

Variants of: B2
Experiment: as above
Conditions: c terminus: a fixed tail appended

Variant | protein stability index
YPHCTGISQQDPESNSQGQGNGLF [D15N] | 3.84
YPHCTGISQQDPESDSQGQGWGLF [N21W] | 2.35
YPHCTGISQQDPESDSQGQGGGLF [N21G] | 3.5
YPHCTGISQQDPESDSQGQGRGLF [N21R] | 3.55
YPHCTGISQQDPESDSQGQGPGLF [N21P] | 3.99
YPHCTMISQQDPESDSQGQGNGLF [G6M] | 3.34
YPYCTGISQQDPESDSQGQGNGLF [H3Y] | 3.2
YPRCTGISQQDPESDSQGQGNGLF [H3R] | 3.6
YPHCTGISQQDPESDMQGQGNGLF [S16M] | 3.62
YPHCTGISQQDPESDVQGQGNGLF [S16V] | 3.69
YPHCTGISQQDPESDTQGQGNGLF [S16T] | 3.73
YPHCTGISQQDPESDKQGQGNGLF [S16K] | 3.61
YPHCTGISQQDPESDQQGQGNGLF [S16Q] | 3.8
YPHCTGISQQDPESDFQGQGNGLF [S16F] | 3.13
YPHCTGYSQQDPESDSQGQGNGLF [I7Y] | 2.64
YPHCTGTSQQDPESDSQGQGNGLF [I7T] | 3.95
YPHCTGNSQQDPESDSQGQGNGLF [I7N] | 4.11
YPHCTGISQQDPESDSQGQGNTLF [G22T] | 3.65
YPHCTGISQQDPESDSQGQGNWLF [G22W] | 2.04
YPHCTGISQQDPESDSQGQGNILF [G22I] | 3.22
YPHCTGISQQTPESDSQGQGNGLF [D11T] | 3.17
YPHCTGISQQQPESDSQGQGNGLF [D11Q] | 3.73
YPHCTGISQQHPESDSQGQGNGLF [D11H] | 3.12
YPHCTGISQQVPESDSQGQGNGLF [D11V] | 3.5

Variant | protein stability index
YPHCTGISQQYPESDSQGQGNGLF [D11Y] | 2.94
YPHCTGISQQRPESDSQGQGNGLF [D11R] | 3.29
EPHCTGISQQDPESDSQGQGNGLF [Y1E] | 5.25
CPHCTGISQQDPESDSQGQGNGLF [Y1C] | 4.29
YPHCTGISQQDPESDSQGMGNGLF [Q19M] | 3.22
YPHCTGISQQDPESDSQGVGNGLF [Q19V] | 3.52
YPHCTGISQQDPESDSQGKGNGLF [Q19K] | 3.85
YPHCTGISQQDPESDSQGGGNGLF [Q19G] | 4.21
YPHCTGILQQDPESDSQGQGNGLF [S8L] | 3.35
YPHCTGIAQQDPESDSQGQGNGLF [S8A] | 3.51
YPHCTGIPQQDPESDSQGQGNGLF [S8P] | 3.91
YPHCTGISQQDLESDSQGQGNGLF [P12L] | 3.65
YPHCTGISQQDKESDSQGQGNGLF [P12K] | 3.57
YPHCTGISQQDCESDSQGQGNGLF [P12C] | 3.77
YPHCTGISQQDNESDSQGQGNGLF [P12N] | 3.48
YPHCTGISQQDPESDSQGQGNGTF [L23T] | 4.71
YPHCTGISQQDPESDSQGQGNGCF [L23C] | 4.62
YPHCTGISQQDPESDSQGQGNGAF [L23A] | 4.35
YPHCTGISQQDPESDSQGQGNGGF [L23G] | 4.99
YPHCTGISQQDPESDSQGQGNGFF [L23F] | 3.15
YPHCTGISQQDPESDSQTQGNGLF [G18T] | 3.41
YPHCTGISQQDPESDSQWQGNGLF [G18W] | 2.62
YPHCTGISQMDPESDSQGQGNGLF [Q10M] | 3.84
YPHCTGISQCDPESDSQGQGNGLF [Q10C] | 3.1

Variant | protein stability index
YPHCTGISQIDPESDSQGQGNGLF [Q10I] | 3.64
YPHCTGISQHDPESDSQGQGNGLF [Q10H] | 3.65
YPHCTGISQADPESDSQGQGNGLF [Q10A] | 3.48
YPHCTGISQNDPESDSQGQGNGLF [Q10N] | 4.05
YPHCHGISQQDPESDSQGQGNGLF [T5H] | 3.2
YPHCSGISQQDPESDSQGQGNGLF [T5S] | 3.53
YCHCTGISQQDPESDSQGQGNGLF [P2C] | 2.45
YYHCTGISQQDPESDSQGQGNGLF [P2Y] | 4.22
YPHCTGISAQDPESDSQGQGNGLF [Q9A] | 4.06
YPHCTGISQQDPERDSQGQGNGLF [S14R] | 3.79
YPHCTGISQQDPEGDSQGQGNGLF [S14G] | 3.74
YPHCTGISQQDPEYDSQGQGNGLF [S14Y] | 3.27
YPHCTGISQQDPESDSQGQGNGLS [F24S] | 5.04
YPHCTGISQQDPESDSQGQGNGLQ [F24Q] | 5
YPHWTGISQQDPESDSQGQGNGLF [C4W] | 2.75
YPHCTGISQQDPESDSQGQCNGLF [G20C] | 3.57
YPHCTGISQQDPESDSQGQANGLF [G20A] | 3.12
YPHCTGISQQDPESDSQGQQNGLF [G20Q] | 3.79
YPHCTGISQQDPESDSCGQGNGLF [Q17C] | 3.39
YPHCTGISQQDPESDSWGQGNGLF [Q17W] | 2.97
YPHCTGISQQDPESDSTGQGNGLF [Q17T] | 3.64
YPHCTGISQQDPESDSMGQGNGLF [Q17M] | 3.8
